Residue numbers refer to the chain shown, from its start. In names and notes the source's numbering stands.
What was measured:
[1] = target: DnaK (E. coli Hsp70) (E. coli) (UniProt P0A6Y8)
[2] = target: Ssa1 (yeast cytosolic Hsp70) (yeast) (UniProt P10591)
[3] = target: Ssa1 (yeast cytosolic Hsp70) (yeast) (UniProt P10591); remark: listed apart in the source

Ssa1 (yeast cytosolic Hsp70) (yeast), sequence (P10591 whole entry): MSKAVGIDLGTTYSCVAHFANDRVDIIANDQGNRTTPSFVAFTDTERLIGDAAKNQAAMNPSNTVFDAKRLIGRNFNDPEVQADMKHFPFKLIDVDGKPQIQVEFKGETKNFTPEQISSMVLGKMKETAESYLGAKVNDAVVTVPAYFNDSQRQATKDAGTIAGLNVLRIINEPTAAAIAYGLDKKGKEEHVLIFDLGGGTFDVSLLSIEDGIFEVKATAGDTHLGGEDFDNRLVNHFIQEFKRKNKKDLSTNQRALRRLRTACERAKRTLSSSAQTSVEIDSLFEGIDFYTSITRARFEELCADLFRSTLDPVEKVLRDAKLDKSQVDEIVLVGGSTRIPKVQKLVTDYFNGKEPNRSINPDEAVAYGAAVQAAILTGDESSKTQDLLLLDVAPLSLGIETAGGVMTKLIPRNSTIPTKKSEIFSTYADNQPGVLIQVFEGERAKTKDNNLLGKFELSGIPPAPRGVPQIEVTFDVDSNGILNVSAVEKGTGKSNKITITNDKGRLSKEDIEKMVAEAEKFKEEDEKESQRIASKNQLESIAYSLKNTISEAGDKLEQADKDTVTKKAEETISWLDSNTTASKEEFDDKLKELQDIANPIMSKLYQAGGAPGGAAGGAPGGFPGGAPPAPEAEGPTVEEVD
DnaK (E. coli Hsp70) (E. coli), sequence (P0A6Y8 whole entry): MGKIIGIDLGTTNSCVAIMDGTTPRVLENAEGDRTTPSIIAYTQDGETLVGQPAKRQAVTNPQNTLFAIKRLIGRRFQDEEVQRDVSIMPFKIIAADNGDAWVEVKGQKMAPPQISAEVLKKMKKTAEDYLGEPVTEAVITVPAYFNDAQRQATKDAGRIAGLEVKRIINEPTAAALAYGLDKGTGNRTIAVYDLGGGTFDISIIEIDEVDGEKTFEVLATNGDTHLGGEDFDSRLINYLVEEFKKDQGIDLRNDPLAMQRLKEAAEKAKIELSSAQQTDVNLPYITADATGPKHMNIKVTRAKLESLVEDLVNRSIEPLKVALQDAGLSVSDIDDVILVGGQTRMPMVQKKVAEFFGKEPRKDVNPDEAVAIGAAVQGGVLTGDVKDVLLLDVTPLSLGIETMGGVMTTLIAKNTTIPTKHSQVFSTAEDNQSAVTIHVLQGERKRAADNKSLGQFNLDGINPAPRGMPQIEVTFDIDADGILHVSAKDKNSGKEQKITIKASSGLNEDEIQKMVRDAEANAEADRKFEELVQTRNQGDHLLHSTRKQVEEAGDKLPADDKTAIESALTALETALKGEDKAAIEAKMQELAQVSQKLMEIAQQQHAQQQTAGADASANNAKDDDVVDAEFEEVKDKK

B1: GrpE (E. coli nucleotide exchange factor) (natural protein)
chain: MSSKEQKTPEGQAPEEIIMDQHEEIEAVEPEASAEQVDPRDEKVANLEAQLAEAQTRERDGILRVKAEMENLRRRTELDIEKAHKFALEKFINELLPVIDSLDRALEVADKANPDMSAMVEGIELTLKSMLDVVRKFGVEVIAETNVPLDPNVHQAIAMVESDDVAPGNVLGIMQKGYTLNGRTIRAAMVTVAKAKA
B1 showed an EC50 of GrpE for raising the yields of disaggregation and refolding of pre-aggregated MlucV by 4000 nM DnaK + 1000 nM DnaJ [1] of 200 nM.

B2: Sse1 (yeast Hsp110), wild type (natural protein)
chain: MSTPFGLDLGNNNSVLAVARNRGIDIVVNEVSNRSTPSVVGFGPKNRYLGETGKNKQTSNIKNTVANLKRIIGLDYHHPDFEQESKHFTSKLVELDDKKTGAEVRFAGEKHVFSATQLAAMFIDKVKDTVKQDTKANITDVCIAVPPWYTEEQRYNIADAARIAGLNPVRIVNDVTAAGVSYGIFKTDLPEGEEKPRIVAFVDIGHSSYTCSIMAFKKGQLKVLGTACDKHFGGRDFDLAITEHFADEFKTKYKIDIRENPKAYNRILTAAEKLKKVLSANTNAPFSVESVMNDVDVSSQLSREELEELVKPLLERVTEPVTKALAQAKLSAEEVDFVEIIGGTTRIPTLKQSISEAFGKPLSTTLNQDEAIAKGAAFICAIHSPTLRVRPFKFEDIHPYSVSYSWDKQVEDEDHMEVFPAGSSFPSTKLITLNRTGDFSMAASYTDITQLPPNTPEQIANWEITGVQLPEGQDSVPVKLKLRCDPSGLHTIEEAYTIEDIEVEEPIPLPEDAPEDAEQEFKKVTKTVKKDDLTIVAHTFGLDAKKLNELIEKENEMLAQDKLVAETEDRKNTLEEYIYTLRGKLEEEYAPFASDAEKTKLQGMLNKAEEWLYDEGFDSIKAKYIAKYEELASLGNIIRGRYLAKEEEKKQAIRSKQEASQMAAMAEKLAAQRKAEAEKKEEKKDTEGDVDMD
Binder B2 has an optimal concentration of WT Sse1 for activating the disaggregation/refolding of pre-aggregated luciferase by 6000 nM Ssa1 + 1000 nM Sis1 [2] of 600 nM, an EC50 of Sse1 for raising the yields of disaggregation and refolding (luciferase activity after 2 h) of pre-aggregated MlucV or luciferase by 4000 nM Ssa1 + 1000 nM Sis1 with ATP [3] of 100 nM and an IC50 of excess Sse1 (above 250 nM) for inhibiting the disaggregation and refolding reaction of 4000 nM Ssa1 + 1000 nM Sis1; complete inhibition at equimolar Sse1 and Ssa1 [3] of 1200 nM.

B3: Sse1-K69M (natural protein)
chain: B2 chain with K69M
B3 was tested, and the concentration at which excess Sse1-K69M inhibits the disaggregation/refolding by 6000 nM Ssa1 + 1000 nM Sis1, against WT Sse1 (fold lower than WT Sse1) [2] was 4 and the optimal concentration of Sse1-K69M for activating the disaggregation/refolding of pre-aggregated luciferase by 6000 nM Ssa1 + 1000 nM Sis1 [2] was 200 nM.
